# Experimental data reported in EP3470428A1 (Numab Innovation AG, dated 2019).
# Legend:
# [1] = molecular target: T1, human CD137 expressed on cells (human, UniProt Q07011 24-255); experiment: cell-based or functional assay
# [2] = molecular target: human PD-L1-Fc chimeric protein (human, UniProt Q9NZQ7 19-239); experiment: SPR (Biacore T200); PD-L1-Fc captured by anti-human Fc
# [3] = molecular target: T1, human CD137 expressed on cells; experiment: cell-based or functional assay; remark: listed apart in the source
# [4] = molecular target: T1, human CD137 expressed on cells; experiment: cell-based or functional assay; remark: listed apart in the source
# [5] = molecular target: T1, human CD137 expressed on cells; experiment: cell-based or functional assay; remark: listed apart in the source
# [6] = molecular target: T1, human CD137 expressed on cells; experiment: cell-based or functional assay; remark: listed apart in the source
# [7] = molecular target: human PD-L1 expressed on cells (human, UniProt Q9NZQ7 19-290); experiment: cell-based or functional assay
# [8] = molecular target: T1, human CD137 expressed on cells; experiment: cell-based or functional assay; remark: listed apart in the source
# [9] = molecular target: T2, biotinylated human PD-L1 (human, UniProt Q9NZQ7 19-238, limits assumed, biotinylated); experiment: competition ELISA; coated human B7.1 as competitor; biotinylated PD-L1 pre-incubated with inhibitor
# T2 construct: also called biotinylated PD-L1
# [10] = molecular target: T1, human CD137 expressed on cells; experiment: cell-based or functional assay; remark: listed apart in the source
# [11] = molecular target: T2, biotinylated human PD-L1; experiment: competition ELISA; coated human PD-1 as competitor; biotinylated human PD-L1 pre-incubated with inhibitor
Binder,"EC50 in ng/ml, CD137 activation, NFkB-luciferase Jurkat reporter assay, HCC827 cells without IFNg [1] [ng/mL]",binding result [2],"EC50 in ng/ml, CD137 activation, NFkB-luciferase Jurkat reporter assay, CHO-PD-L1 cells [3] [ng/mL]","max. activation (%), NF-kB reporter gene, CHO-PD-L1; HSA: no [4] [%]","max. activation (%), NF-kB reporter gene, HCC827 +IFNg; HSA: no [4] [%]","max. activation (%), NF-kB reporter gene, HCC827 -IFNg; HSA: no [4] [%]","EC50 in ng/ml, CD137 activation, NFkB-luciferase Jurkat reporter assay, HCC827 cells stimulated with IFNg [5] [ng/mL]","EC50 in ng/ml, CD137 activation, NFkB-luciferase Jurkat reporter assay, PD-L1 expressing CHO cells, 6h [6] [ng/mL]","IC50 (ng/ml), neutralization of PD-L1/PD-1 interaction, NFAT-luciferase reporter gene assay [7] [ng/mL]","EC50 in ng/ml, CD137 activation, NFkB-luciferase Jurkat reporter assay, HCC827 with IFNy stimulation, 24h [8] [ng/mL]","EC50 in ng/ml, CD137 activation, NFkB-luciferase Jurkat reporter assay, HCC827 without IFNy stimulation, 24h [8] [ng/mL]",IC50 [9] [µg/mL],"EC50 in ng/ml, CD137 activation, NFkB-luciferase Jurkat reporter assay, PD-L1 expressing CHO cells, 24h [10] [ng/mL]",IC50 [11] [µg/mL]
"PRO1123: 38-02-A04 sc05 IF scDb-i/33_03_G02 sc01 scDb-o (bispecific antibody, scDb) DIQMTQSPSSLSASVGDRVTITCQASQSINDYLAWYQQKPGKAPKLLIYKASTLASGVPSRFSGSGSGTDFTLTISSLQPEDFATYYCQQGYIITDIDNVFGTGTKVTVLGGGGGSQVQLQESGPGLVKPSETLSLTCKVSGFSFSNSYWICWVRQPPGKGLEWIGCTFVGSSDSTYYANWAKGRVTISVDSSKNQVSLKLSSVTAADTAVYFCARHPSDAVYGYANNLWGQGTLVTVSSGGGGSGGGGSGGGGSGGGGSIQMTQSPSSLSASVGDRVTITCQASQSINNVLAWYQQKPGKPPKLLIYRASTLASGVPSRFSGSGSGTDFTLTISSLQPEDFATYYCQSSYGNYGDFGTGTKVTVLGGGGGSQVQLQESGPGLVKPSETLSLTCKVSGFSFSSGYDMCWIRQPPGKGLEWIGCVVAGSVDITYYASWAKGRVTISVDSSKNQFSLKLSSVTAADTAVYYCARKDAYSDAFNLWGQGTLVTVSS",16.1,binds,5.75,219,154,123,11.9,–,–,–,–,–,–,–
"PRO1124: 38-02-A04 sc06 Full scDb-i/33_03_G02 sc01 scDb-o (bispecific antibody, scDb, STR graft of the CD137 domain) DIQMTQSPSSLSASVGDRVTITCQASQSINDYLAWYQQKPGKAPKLLIYKASTLASGVPSRFSGSGSGTDFTLTISSLQPEDFATYYCQQGYIITDIDNVFGTGTKVTVLGGGGGSQVQLQESGPGLVKPSETLSLTCKASGFSFSNSYWICWVRQPPGKGLEWIGCTFVGSSDSTYYANWAKGRVTISKDSSKNQVSLKLSSVTAADTAVYFCARHPSDAVYGYANNLWGQGTLVTVSSGGGGSGGGGSGGGGSGGGGSLQMTQSPSSLSASVGDRVTITCQASQSINNVLAWYQQKPGKPPKLLIYRASTLASGVPSRFSGSGSGTDFTLTISSLQPEDFATYYCQSSYGNYGDFGTGTKVTVLGGGGGSQVQLQESGPGLVKPSETLSLTCKVSGFSFSSGYDMCWIRQPPGKGLEWIGCVVAGSVDITYYASWAKGRVTISVDSSKNQFSLKLSSVTAADTAVYYCARKDAYSDAFNLWGQGTLVTVSS",5.62,binds,3.68,229,188,113,4.83,–,–,–,–,–,–,–
"PRO1060: 33-03-G02 IgG1 HC with 38_02_A04 sc01 scFV, PD-L1/CD137(scFv) silent Morrison (bispecific antibody, IgG-scFv fusion, scFv on the heavy chain; also called Morrison-H) light: DIQMTQSPSSLSASVGDRVTITCQASQSINDYLAWYQQKPGKAPKLLIYKASTLASGVPSRFSGSGSGTDFTLTISSLQPEDFATYYCQQGYIITDIDNVFGTGTKVTVLGTVAAPSVFIFPPSDEQLKSGTASVVCLLNNFYPREAKVQWKVDNALQSGNSQESVTEQDSKDSTYSLSSTLTLSKADYEKHKVYACEVTHQGLSSPVTKSFNRGEC heavy: QVQLQESGPGLVKPSETLSLTCKVSGFSFSSGYDMCWIRQPPGKGLEWIGCVVAGSVDITYYASWAKGRVTISVDSSKNQFSLKLSSVTAADTAVYYCARKDAYSDAFNLWGQGTLVTVSSASTKGPSVFPLAPSSKSTSGGTAALGCLVKDYFPEPVTVSWNSGALTSGVHTFPAVLQSSGLYSLSSVVTVPSSSLGTQTYICNVNHKPSNTKVDKRVEPKSCDKTHTCPPCPAPEAAGGPSVFLFPPKPKDTLMISRTPEVTCVVVDVSHEDPEVKFNWYVDGVEVHNAKTKPREEQYNSTYRVVSVLTVLHQDWLNGKEYKCKVSNKALGAPIEKTISKAKGQPREPQVYTLPPSREEMTKNQVSLTCLVKGFYPSDIAVEWESNGQPENNYKTTPPVLDSDGSFFLYSKLTVDKSRWQQGNVFSCSVMHEALHNHYTQKSLSLSPGKGGGGSGGGGSIQMTQSPSSLSASVGDRVTITCQASQSINNVLAWYQQKPGKAPKLLIYRASTLASGVPSRFSGSGSGTDFTLTISSLQPEDFATYYCQSSYGNYGDFGTGTKVTVLGGGGGSGGGGSGGGGSGGGGSQVQLQESGPGLVKPSETLSLTCKVSGFSFSNSYWICWIRQPPGKGLEWIGCTFVGSSDSTYYANWAKGRVTISVDSSKNQFSLKLSSVTAADTAVYYCARHPSDAVYGYANNLWGQGTLVTVSS",–,–,–,–,–,–,–,56.4,133,17.5,13.6,0.0174,80.8,0.00567
